Assay results as given in US20220242973A1 (Molecular Partners, published 2022).

Target: T1, Recombinant human FAP (fibroblast activation protein) (human, UniProt Q12884 26-760)
T1 construct: Bought soluble recombinant protein; Chemically biotinylated for the HTRF screen; also called hFAP; biotinylated human FAP
T1 sequence (looked up): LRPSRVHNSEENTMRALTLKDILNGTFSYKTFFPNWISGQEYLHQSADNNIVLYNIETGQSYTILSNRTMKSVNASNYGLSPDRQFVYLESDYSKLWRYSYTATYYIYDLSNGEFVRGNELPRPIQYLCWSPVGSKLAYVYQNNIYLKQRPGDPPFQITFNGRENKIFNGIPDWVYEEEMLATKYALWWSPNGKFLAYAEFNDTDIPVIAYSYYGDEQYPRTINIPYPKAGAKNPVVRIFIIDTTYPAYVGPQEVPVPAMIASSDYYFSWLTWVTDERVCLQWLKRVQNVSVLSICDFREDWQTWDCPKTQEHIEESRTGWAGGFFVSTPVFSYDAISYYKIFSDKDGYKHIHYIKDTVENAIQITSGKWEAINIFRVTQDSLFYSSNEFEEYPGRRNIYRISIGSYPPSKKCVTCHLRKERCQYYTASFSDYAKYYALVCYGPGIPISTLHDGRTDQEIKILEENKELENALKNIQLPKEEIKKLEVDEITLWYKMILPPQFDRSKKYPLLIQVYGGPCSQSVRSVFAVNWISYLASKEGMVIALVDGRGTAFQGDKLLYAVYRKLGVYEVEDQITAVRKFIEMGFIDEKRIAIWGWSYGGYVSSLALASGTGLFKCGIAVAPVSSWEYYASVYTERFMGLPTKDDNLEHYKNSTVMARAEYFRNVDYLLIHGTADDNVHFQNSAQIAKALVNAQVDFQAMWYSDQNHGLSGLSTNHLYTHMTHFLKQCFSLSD
Test: SPR (ProteOn), human FAP immobilized on GLC chip
Experimental: Briefly, human FAP was diluted in 10 mM Na-acetate pH 5.3 buffer and covalently immobilized on a GLC chip (BioRad) to a level of around 2000 resonance units (RU). The interaction of ankyrin repeat protein and hFAP was then measured by injecting 200 μl running buffer (PBS, pH 7.4 containing 0.005% Tween 20®) containing serial dilutions of ankyrin repeat proteins covering a concentration range between 30 nM and 0.5 nM (on-rate measurement), followed by a running buffer flow for at least 25 minutes at a constant flow rate of 100 μl/min (off-rate measurement). The regeneration was performed using 15 μl of 10 mM Glycine pH 2 followed by 15 μl of 124 mM H₃PO₄. […] Based on the SPR traces obtained from the on-rate and off-rate measurements, the on- and off-rate of the corresponding ankyrin repeat protein—FAP interaction was determined.
Briefly, mouse FAP was diluted in 10 mM Na-acetate pH5.3 buffer and covalently immobilized on a GLC chip (BioRad) to a level of around 2000 resonance units (RU). The interaction of DARPin® protein #41 and mFAP was then measured by injecting 200 μl running buffer (PBS, pH7.4 containing 0.005% Tween20®) containing serial dilutions of DARPin® protein #41 covering a concentration range between 50 nM and 3 nM (on-rate measurement), followed by a running buffer flow for 30 minutes at a constant flow rate of 100 μl/min (off-rate measurement). […]

Kd: 0.264 nM
B1: DARPin® protein #41 (designed binder)
chain: MRGSHHHHHHGSDLGKKLLEAARAGQDDEVRELLKAGADVNAKDYFSHTPLHLAARNGHLKIVEVLLKAGADVNAKDFAGKTPLHLAANEGHLEIVEVLLKAGADVNAQDIFGKTPADIAADAGHEDIAEVLQKAAGSPTPTPTTPTPTPTTPTPTPTGSDLGEKLLVAALYGQDDEVRILLAAGADVNAKDQWGLTPLHKAALQGHLEIVEVLLKAGADVNAKDERGHTPLHWAARFGHLEIVEVLLKAGADVNAQDQKGYTPADLAALWGHEDIAEVLQKAA
notes: Fusion of a serum albumin-specific and a FAP-specific ankyrin repeat domain
